Source: patent publication US20130309230A1 (published 2013)

Target: T1, UC4F10-11 hamster anti-mouse CTLA4 antibody
T1 construct: also called mouse anti-CTLA4 antibody (clone UC4 F10-11); anti-CTLA4
Assay: bacterial display / FACS screening with labelled anti-CTLA4 antibody
Protocol: Subsequent rounds of enrichment were carried out using FACS. For the initial round of FACS, bacteria were sorted using biotinylated target (5 nM) and secondary labeling step with streptavidin phycoerythrin. […] Relative affinity and off-rate screening of individual clones were performed using a ficin digested Dylight-labeled Fab antibody fragment to reduce avidity effects of the bivalent antibody due to the expression of multiple peptides on the bacterial surface. As an additional test of target specificity, individual clones were screened for binding in the presence of 20 uM E. Coli depleted IgG as a competitor.

T1 sequence (VH, as listed by the source limits assumed, chain 1 of 2): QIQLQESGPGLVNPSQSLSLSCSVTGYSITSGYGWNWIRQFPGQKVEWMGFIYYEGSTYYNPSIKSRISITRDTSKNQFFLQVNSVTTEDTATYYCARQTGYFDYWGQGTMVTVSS
T1 sequence (VL, as listed by the source limits assumed, chain 2 of 2): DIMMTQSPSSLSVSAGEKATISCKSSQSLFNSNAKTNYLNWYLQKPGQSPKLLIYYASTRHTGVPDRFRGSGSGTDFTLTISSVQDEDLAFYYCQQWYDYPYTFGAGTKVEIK

binding result: no binding
B1: Negative control (does not bind anti-CTLA4) (peptide)
peptide: PCSEWQSMVQPRCYY
notes: The printed peptide has A where the printed DNA encodes Q; also called MMneg; negative control MM
